From publication PMC4961952 (Scientific Reports, 2016)

B1: TH1(MBP): recombinant human tyrosine hydroxylase isoform 1, purified on amylose resin as His6-MBP-TH1 and cleaved by TEV protease (enzyme)
chain: not shown
notes: residues glycine and alanine left in front of the starting methionine after removal of the fusion partner (told in words); tyrosine hydroxylase isoform 1 (TH1), human, 497 residues (Met1-Gly497); cDNA from pET-TH cloned into pET-MBP-1a; extra glycine in position 2 from cloning; numbers count on: human TH1; Iron-containing preparation (0.25 mol/mol subunit), no cobalt; After cleavage the chain is …
B2: TH1(ZZ): recombinant human tyrosine hydroxylase isoform 1, purified on TALON resin as His6-ZZ-TH1 and cleaved by TEV protease (enzyme)
chain: not shown
notes: residues glycine and alanine left in front of the starting methionine after removal of the fusion partner (told in words); tyrosine hydroxylase isoform 1 (TH1), human, 497 residues (Met1-Gly497); cDNA from pET-TH cloned into pET-ZZ-1a; extra glycine in position 2 from cloning; numbers count on: human TH1; Contains cobalt from the TALON resin (0.70 mol/mol subunit); After cleavage the chain is the …

Molecular target: the molecule itself
Experiment: SEC; analytical gel filtration of the TEV-cleaved fusion protein on a Superdex 200 Increase 10/300 column

| Protein | stoichiometry N |
| --- | --- |
| B1 | 4 |
| B2 | 4 |
